In paper PMC4255524:
Values belong to the molecule of their own block, whether it stands above or below them.

Tests used:
[1] = target: N-terminal domain of Chlamydomonas reinhardtii BBS1 (residues 1–425) (Chlamydomonas reinhardtii); assay: ITC
[2] = target: N-terminal domain of Homo sapiens BBS1 with the patient mutation E234K (Homo sapiens) (UniProt Q8NFJ9); assay: ITC
Chain of UniProt Q8NFJ9 (Q8NFJ9 1-417 E234K): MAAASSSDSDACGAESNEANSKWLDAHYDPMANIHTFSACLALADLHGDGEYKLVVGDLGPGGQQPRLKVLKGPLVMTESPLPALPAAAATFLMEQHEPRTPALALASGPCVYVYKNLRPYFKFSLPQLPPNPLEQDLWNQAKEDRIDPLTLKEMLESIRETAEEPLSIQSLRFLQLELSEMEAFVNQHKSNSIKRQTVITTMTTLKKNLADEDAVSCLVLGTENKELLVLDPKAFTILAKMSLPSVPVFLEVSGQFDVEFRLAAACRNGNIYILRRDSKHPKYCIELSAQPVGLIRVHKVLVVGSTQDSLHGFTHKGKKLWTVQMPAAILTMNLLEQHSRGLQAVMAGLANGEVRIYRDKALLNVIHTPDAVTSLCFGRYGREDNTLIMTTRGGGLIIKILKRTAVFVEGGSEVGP

Molecule: Chlamydomonas reinhardtii ARL6ΔN (residues 1–15 deleted), GTP-bound (domain or fragment)
Kd [1]: 350 nM
stoichiometry N [1]: 1

Kd [2]: 350 nM
B1: untagged Homo sapiens ARL6 Q73L ΔN (domain or fragment)
chain: KEVHVLCLGLDNSGKTTIINKLKPSNAQSQNILPTIGFSIEKFKSSSLSFTVFDMSGLGRYRNLWEHYYKEGQAIIFVIDSSDRLRMVVAKEELDTLLNHPDIKHRRIPILFFANKMDLRDAVTSVKVSQLLCLENIKDKPWHICASDAIKGEGLQEGVDWLQDQIQTVKT
